According to the nanobody polyreactivity screen of Harvey et al. (2022):

Test: yeast display, Sf9 membrane polyspecificity reagent, FACS + sequencing; frameworks hold sequencing errors
How it was run: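 Genes from sorted yeast were amplified by colony PCR, read by MiSeq 2 × 250 sequencing and filtered on CDR length. These cells carried a synthetic nanobody library in Saccharomyces cerevisiae BJ5465 and were sorted by FACS into low and high (top ~1%) gates on anti-HA and streptavidin fluorescence. Polyreactivity is labelled according to the gate of origin.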
With “QVQLVESGGGLVQAGGSLRLSCAASGSTFPDYAMGWYRQAPGKEREFVASITWSDGSTYYADSVKGRFTISRDNAKNTVYLQMNSLKPEDTAVYYCIADYVYYYIPVVYEYDYWGQGTQVTVSS” the “polyreactivity (PSR sort gate)” value was “high polyreactivity”.
For “QVQLVESGGGLVQAGGSLRLSCAASGSTFPDYAMGWYRQAPGKERELVAAIDGSSGSTYYADSVKGRFTISRDNAKNSVYLRMYSLKPEDTAVYYCNVVASLYTYGYWGQGTQVTVSS”, the “polyreactivity (PSR sort gate)” value was “low polyreactivity”.
In the case of “QVQLVESGGGLVQAGGSLRLSCAASGSTFPDYAMGWYRQAPGKERELVAVITIRGGSTYYADSVKGRFTISRDNAKNTVYLQMNSLKPEDTAVYYCAATGQLQGWYDMYYWGQGTQVTVSS”, the “polyreactivity (PSR sort gate)” value is reported as “low polyreactivity”.
For “QVQLVESGGGLVQAGGSLRLSCAASGSTFPEYGMGWYRQAPGKERELVAAINSRGGNTYYADSVKGRFTISRDNAKKTVYLQMNSLKPEDTAVYYCNRLSSYNMDYWGQGTQVTVSS”, the “polyreactivity (PSR sort gate)” value was “high polyreactivity”.
In the case of “QVQLVESGGGLVQAGGSLRLSCAASGSTFPFYDMGWYRQAPGKERELVAAIRYTGNTYYADSVKGRFTISRDNAKNTVYLQMNSLKPEDTAVYYCAADADYWAYGYWGQGTQVTVSS”, the “polyreactivity (PSR sort gate)” value is reported as “low polyreactivity”.
For “QVQLVESGGGLVQAGGSLRLSCAASGSTFPGNAMGWYRQAPGKERELVAAITSTGTTYYADSVKGRFTISRDNAKNTVYLQMNSLKPEDSAVYYCNADRYPDPSTFDYWGQGTLVTVSS”, the “polyreactivity (PSR sort gate)” value was “low polyreactivity”.
With “QVQLVESGGGLVQAGGSLRLSCAASGSTFPGNAMGWYRQAPGKERELVARINDGADTNYADSVKGRFTISRDNAKTTVSLQMNSLKPEDTAVYYCANPYFDGRTHFDSWGQGTQVTVSS” the “polyreactivity (PSR sort gate)” value was “low polyreactivity”.
In the case of “QVQLVESGGGLVQAGGSLRLSCAASGSTFPGNAMGWYRQSPGKERELVAAISDGVRTSYADSVKGRFTISRDNAKNTVYLQMNSLKPEDTAVYYCNADFARQYDPHVLYITVGMDYWGQGTKVTVSS”, the “polyreactivity (PSR sort gate)” value is reported as “low polyreactivity”.
In the case of “QVQLVESGGGLVQAGGSLRLSCAASGSTFPGYAMGRYRPAPGKERELVAAISASGGSTYYADSVKGRFTISRDYAKNTVYLQMNSLTPEDTAVYYCAKVLSRGASAHVYWGQGTQVTVSS”, the “polyreactivity (PSR sort gate)” value is reported as “low polyreactivity”.
With “QVQLVESGGGLVQAGGSLRLSCAASGSTFPGYAMGWYRQAPGKERELVAAINWRGDSTYYADSVKGRFTISRDNAKNTVYLEMNSLKPEDPAVYFCNTVWGSPSRSSAYDYWGQGTQVTVSS” the “polyreactivity (PSR sort gate)” value was “high polyreactivity”.
With “QVQLVESGGGLVQAGGSLRLSCAASGSTFPGYAMGWYRQAPGKERELVAAINWRGDSTYYADSVKGRFTISRDNAKNTVYLQMNSLKPEDTAVYYCAAKYNHVTDEYDYWGQGTEVTVSS” the “polyreactivity (PSR sort gate)” value was “high polyreactivity”.
With “QVQLVESGGGLVQAGGSLRLSCAASGSTFPHNPMGWYRQQPGKERELVAAISVGGGSKHYADSVKGRFTISRDNAKNTVYFQMNSLKPEDTAVYYCAKDYAYQYSFVTYDYWGQGTLVTVSS” the “polyreactivity (PSR sort gate)” value was “low polyreactivity”.
For “QVQLVESGGGLVQAGGSLRLSCAASGSTFPKYGMGWYRQAPGKEREFVARINWNGGGTYYADSVKGRFTISRDYAKNTVYLQMNSLKPEDTAVYYCNARKRGARFILGYDYWGQGTQVTVSS”, the “polyreactivity (PSR sort gate)” value was “low polyreactivity”.
In the case of “QVQLVESGGGLVQAGGSLRLSCAASGSTFPKYPMGWYRQSPGKERELVASISVTTGSTYYADSVKGRFTISRDNAKHTVYLQMNSLKPEDTAVYYCAKRTYSRKFRGAYNYWGLGTQVTVSS”, the “polyreactivity (PSR sort gate)” value is reported as “high polyreactivity”.
In the case of “QVQLVESGGGLVQAGGSLRLSCAASGSTFPLYTMGWYRQAPGKEREFVAAISRSGGSTYYADSVKGRFTISRDNAKNTVFLQINSLKPEDTAVYYCDTRSYKSRTYDYWGQGTQVSVSS”, the “polyreactivity (PSR sort gate)” value is reported as “high polyreactivity”.
With “QVQLVESGGGLVQAGGSLRLSCAASGSTFPPYAMGWYRQAPGKERELVAAISNVGSTNYADSVKGRFTISRDNAKNTVYLQMNSLKPEETAVYYCAADFWERFALWGWIYLDYDYWGQGTQVTVSS” the “polyreactivity (PSR sort gate)” value was “low polyreactivity”.
In the case of “QVQLVESGGGLVQAGGSLRLSCAASGSTFPQYAMGWDRQAPGKERELVAVITDSGGSTYYADSVKGRFTISRDNAKNTVYLQKNSLKPEDTAVYYCAARRWSPRSGLGYGYWGQGTQVTVSS”, the “polyreactivity (PSR sort gate)” value is reported as “high polyreactivity”.
For “QVQLVESGGGLVQAGGSLRLSCAASGSTFPQYTMGWSRQAQGKERELVAAITSGGRTYYADSVKGRFTISRDNAKNTVYLQMNSLKPEDTAVYFCAAGYWYRYFYYTSSPYDYWGQGTQVTVSS”, the “polyreactivity (PSR sort gate)” value was “high polyreactivity”.
For “QVQLVESGGGLVQAGGSLRLSCAASGSTFPQYVMGWYRQEPGKERELVAAITKSGGRTYYADSVKGRFTISRDNAKNTVYLQMNSLKPEDTAVYYCAAVRWDISRFRYYSWGHGTQVTVSS”, the “polyreactivity (PSR sort gate)” value was “high polyreactivity”.
In the case of “QVQLVESGGGLVQAGGSLRLSCAASGSTFPRNAMGWYRQAPGKERELVAAITSGGSTYYADSVKGRFTISRDNAKNTVYLQMNSLKPEDTAVYYCAKSRSSYPYRTYYYWGQGTQVTVSS”, the “polyreactivity (PSR sort gate)” value is reported as “low polyreactivity”.
In the case of “QVQLVESGGGLVQAGGSLRLSCAASGSTFPRNAMGWYRQAPGKERELVARITWSGGDTYYADSVKGRFTISRDNSKNTVYLQMISLKPEDTAVYYCAARWYRSVLAKVGYGYWGQGTQVTVSS”, the “polyreactivity (PSR sort gate)” value is reported as “high polyreactivity”.
With “QVQLVESGGGLVQAGGSLRLSCAASGSTFPRYAMGWYRQAPGKERELVAAISSGGSTYYADSVKGRFTISRDNAKNTVYLQMNSLKPEDTAVYYCNARRSRSRYDYWGQGTQVTVSS” the “polyreactivity (PSR sort gate)” value was “high polyreactivity”.
For “QVQLVESGGGLVQAGGSLRLSCAASGSTFPRYAMGWYRQAPGKERELVAAISSGGSTYYADSVKGRFTISRDNAKNTVYLQMNSLKPEDTAVYYCNRRPGARYNYWGQGTQVTVSS”, the “polyreactivity (PSR sort gate)” value was “high polyreactivity”.
With “QVQLVESGGGLVQAGGSLRLSCAASGSTFPRYAMGWYRQAPGKERELVADISSGGSTYYADSVKGRFTISRDNAKNTVYLQMNSLKPEDTAVYYCNARRSRSRYDYWGQGTQVTVSS” the “polyreactivity (PSR sort gate)” value was “high polyreactivity”.
In the case of “QVQLVESGGGLVQAGGSLRLSCAASGSTFPRYAMGWYRQAPGKERELVASITSDGGSTYYADSVKGRFTISRDNAKNTVYLQMNSLKPEDTAFYYCNKVPYRGYRRYGYWGQGTQVTVSS”, the “polyreactivity (PSR sort gate)” value is reported as “high polyreactivity”.
With “QVQLVESGGGLVQAGGSLRLSCAASGSTFPSNAMGWYRQAPGKERELVAAISRSGGSTYYADSVKGRFTISRDNAKNTVYLQMNSLKPEDTAVYYCAVQVRPNSGGTRIHRGGYDYWGQGTQVTVSS” the “polyreactivity (PSR sort gate)” value was “low polyreactivity”.
In the case of “QVQLVESGGGLVQAGGSLRLSCAASGSTFPSYVMGWSRQAPGKARELVAAISSSGGRTYYADSVKGRFTISRDNAKNTVYLQMNSLKPEDTAVYYCAAKRGPLVYDHDYWGQGTQVTVSS”, the “polyreactivity (PSR sort gate)” value is reported as “high polyreactivity”.
In the case of “QVQLVESGGGLVQAGGSLRLSCAASGSTFPTNAMGWYRQAPGKERELVAGITEGGSSTYYADSVKGRFTISRDNAKNTVYLQMTSLKPEDTAVYYCAAAARAGLKRYYYWGQGTQVTVSS”, the “polyreactivity (PSR sort gate)” value is reported as “high polyreactivity”.
For “QVQLVESGGGLVQAGGSLRLSCAASGSTFPTYAMGWYRQAPGKESELVAAISFSGARTYYADSVKGRFTISRDNAKNTVYLQMNSLKPEDTAVYYCAKDSSYSRRYEYWGQGTQVTVSS”, the “polyreactivity (PSR sort gate)” value was “high polyreactivity”.
For “QVQLVESGGGLVQAGGSLRLSCAASGSTFPVNTMGWYRQAPGKERELVAAISSDDNTNYADSVKGRFTISRDNAKNTVYLQMNSLKPEDTAVYYCAVKGHPAYVEVPPRYAWEFDYWGQGTQVTVSS”, the “polyreactivity (PSR sort gate)” value was “low polyreactivity”.
